Source: publication PMC2820103 (Biochemistry, 2009)

Target: the molecule itself
Test: SEC

B1: Benzylsuccinate synthase α subunit (BSS-α) with a C-terminal His6 tag (natural protein, Thauera aromatica T1, UniProt O68395 1-864, looked up)
chain: MNDIVSAKVLEYKGKKLNFTPEDPAEETIPADELHEHLQKPSTARTKRLKERCRWKHASAGEFIEKSVTAGIERMRYLTEAHKASEGKPEAIRRALGLANVLNKSTLVLQEDEFIVGYHAEDPNMFPLYPELSHMAVQDYLRSDYSPQPADEAAAINEYWKPHSLQSKCQPYFDPADLGRMYQVSSMEAPSFASGYNSIVPPYETVLEDGLLARIKLAEKHIAEAQADMSTFPWNGTKGLDNIAKIDNWKAMVIACKAVISWARRQGRLCKIVAENFETDPKRQAELLEIADICQRIPAEPCKGLKDAMQAKFFTFLICHAIERYASGYAQKEDTLLWPYYKASVVDKKFQPMSHMDAVELVEMERLKISEHGAGKSRAYREIFPGSNDLFILTVGGTNAKGEDACNDMTDAILEAAKRIRTAEPSIVFRYSKKNREKTLRWVFECIRDGLGYPSIKHDEIGTEQMKEYAKFSLNGNGATDEEAHNWVNVLCMSPGIHGRRKTQKTRSEGGGSIFPAKLLEISLNDGYDWSYADMQLGPKTGDLSSLKSFEDVWEAFRKQYQYAINLCISTKDVSRYFEQRFLQMPFVSAIDDGCMELGMDACALSEQPNGWHNPITTIVAANSLVAIKKLVFEEKKYTLEQLSQALKANWEGFEEMRVDFKRAPKWGNDDDYADGIITRFYEEIIGGEMRKITNYSGGPVMPTGQAVGLYMEVGSRTGPTPDGRFGGEAADDGGISPYMGTDKKGPTAVLRSVSKVQKNQKGNLLNQRLSVPIMRSKHGFEIWNSYMKTWHDLNIDHVQFNVVSTDEMRAAQREPEKHHDLIVRVSGYSARFVDIPTYGQNTIIARQEQDFSASDLEFLNVEI
With B1 the “stoichiometry N” value was 2.
